From patent US20250018053A1 (published 2025)

Biological target: -
Assay: kinetic binding (Ka/Kdis fit)

B1: Ch-15A7.5 (antibody, V domains shown)
VH: EVKLVESGGGLVQPGGSRKLSCAASGFTFSNYGMAWVRQAPGKGPEWVAFISNLAYGINYADTVTGRFTISRENAKNTLYLEMRSLRSEDTAMYYCARGARATGWFAYWGQGTLVTVSA
VL: DIVMTQSQKFMSTSIGDRVSVTCKASQNVDTHVAWYQEKPGQSPKALIYSASYRYSGVPDRFTGSGSGTDFTLTISNVQSEDLADYFCQQYNSYPLTFGGGTKLEIK
Kd: 45.9 nM
